This data set in a line: yeast display, Sf9 membrane polyspecificity reagent, FACS + sequencing; frameworks hold sequencing errors. An outline of the steps: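 After 36–48 hours of galactose induction, yeast (Saccharomyces cerevisiae BJ5465) displaying a synthetic nanobody library were stained at 4 °C for 1 hour with 10% biotinylated, detergent-solubilized Sf9 membrane reagent. Streptavidin microbeads enriched the stained cells before FACS sorting into low and high (top ~1%) gates on anti-HA and streptavidin fluorescence. Each clone's polyreactivity label reflects its gate of origin.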
As for “QDQLVESGGGLVQAGGSLRLSCAASGFIFDTYAMGWYRQAPGKERELVAVISSGGSTYYADSVKGRFTISRDNAKNTVYLQMNSLKPEDTAVYYCAADSGYLGIYGDEYSWGQGTQVTVSS”, the “polyreactivity (PSR sort gate)” value is reported as “low polyreactivity”. Consider “QVQLVESGGGLVQAGGSLRLSCAASGSTFRYNAMGWYRQAPGKERELVAAITSGGGTNYADSVKGRFTISRDNAKNTVYLQMKSLKPEDTAVYYCAAPWGLGSELLKRDYWGQGTQVTVSS”, for which the “polyreactivity (PSR sort gate)” value was “low polyreactivity”. For “QVQHVESGRGLVQAGVSLRLSCAASGIFFGAYAMGWYRQAPGKEREFVAAISRSGGSTYYADSVKGRFTISRDYAKNTVYFQKNSLKPEDSAVYYCNALAKYHYYLGQGTQVTVSS”, the “polyreactivity (PSR sort gate)” value was “high polyreactivity”. The result for “QVQLVDSVRGLVQAGGSLRLSCAASGSIFNQNAMGWYRQAPGKERELVAVISSGGRTSYADSVKGRFTISRDNAKNTVYLQMNSLKPEDTAVYYCAADYGDRYWDYGYWGQGTQVTVSS” reads “low polyreactivity”. With “QVQLVESGGGLVQAGGSLRLSCAASGRTFVGYVMGWYRQAPGKERELVAAISKIGGRTYYADSVKGRFTISRDNAKNTVYLQMNSLKTEDTAVYYCAAERTKSIKLPRPGSMDYWGQGTQVTVSS”, the “polyreactivity (PSR sort gate)” value was “low polyreactivity”. Regarding “QVQLVESGGGLVQAGGSLRLSCADSGGTFFGYAMGWYRQAPGKERELVAAIRWSDGRTYYADSVKGRFTISRDNAKNTVFLQMNSLKPEDTAVYYCNADDARLFDYWGQGTQVTVSS”, the “polyreactivity (PSR sort gate)” value is “low polyreactivity”. Under “QVQLVESGGGLVQAGGSLRLSCAASGRIFNRNAMGWYRQAPGKERELVAAISSSGGSTYYADSVKGRFTISRDTAKNTVYLQMNSLKPEDTAVYYCAAVTQSYGYYYWGQGTQVTVSS” stands “high polyreactivity”. With “HVQLQEIGGGLVQAGDSQRLSCAASGNIFRFTDMGRYRQAPGKERELVAAINAGSTTYYAASVKGRFTISRDNAKNTVYLQMNSLKPEDTAVYYCNALYSYKYGRKYDYWGQGTQVTVSS”, the “polyreactivity (PSR sort gate)” value is “high polyreactivity”. Under “QVQLVESGGGLVQAGGSLRLSCAASGITFYGYAMGWYRQAPGKERELVAAISESGGSTYYADSVKGRFTISRDNAKNTVYLQMNSLKPEDTAVYYCNAESYSTWSFGHRYEYDYWGQGTQVTVSS” stands “low polyreactivity”. Take “QVQLVESGGGLVQAGGSLRLTCAACGRTFYWYSMGWYRKAPGKERELVATITRTGTRTYYADSVKGRFTISRDNAKNTVYLQMNSLKPEDTAVYYCAAGVIRYGGKEEYYYWGLGTQVTVSS”: the “polyreactivity (PSR sort gate)” value is “high polyreactivity”. The result for “QVQLVETGGGLVQAGGSLRLSCAASGRTFNVNVKGRYRQAPGKERELVAAINRRGNTYYADSVKGRFTISRDNAKNTVYLQMNSLKPEDTAVYYCAADYRRYGSYDYWGQGTQVTVSS” reads “low polyreactivity”; that for “QDQLVESGGRLVQAGGSLRLSCAASGFILSTYAMGWYRQAPGKERELVAAISSSGTSTYYADSVKGRFTISRDNAKNTVYLQMNSLKPEDTAVYYCARVSKRTWSGYYYWGQGTQVTVST”, “high polyreactivity”; that for “QVQLVESGGGLVQAGGSLRLSCAASGSTFIFYVMGWNRQAPGKERELVASITGNGTSTYYADSVKGRFTISRDNAKNTVYLQMNSLKPEDTAVYYCNAVFSPSRYDYWGQGTQVTVSS”, “low polyreactivity”. For the sequence “QVQIGESGGGLVQAGGSLRLSCAACGFIFYRYAMGWYRQAPGKERELVAAISWSGGTTYYADSVKGRFTISRDNAKNTDYLQMNSLKPEDTAVYYCNARYPRSSPFGYWGQGTQVTVSS”, the “polyreactivity (PSR sort gate)” value is recorded as “high polyreactivity”.

Take “QVQLVESGGGLVQAGGSLRLSCAASGSTISSYAMGWYRPAPGKERELVAANTSGGSTYYADSLKGRFTISRDNAKNSVSLQMNSLKPEDTAVYYCDLGSTTMDYWGQGTQVTVSS”: the “polyreactivity (PSR sort gate)” value is reported as “low polyreactivity”. Take “QVQLVESGGGLVQAGGSLRLICAACGFTLTGYTMGWYRQAPGKERELVAAITSRGGTTYYADSVKGRFTISRDNAKYTVYLQMNSLKPEDTAVYYCNVVYPYLEYDYWGQGTQVTVSS”: the “polyreactivity (PSR sort gate)” value is “high polyreactivity”.

The values are drawn from the nanobody polyreactivity screen of Harvey et al. (2022).
